For this assay, the target named is KDM4E (human).

“H2a(1–20)R3me2a (from UniProt P0C0S8 2-21) (peptide)”: the KM of KDM4E catalysed demethylation, formaldehyde dehydrogenase (FDH) coupled assay was found to be 5.18 µM.
Take “H3(1–21)R2me2a (from UniProt P68431 2-22) (peptide)”: the KM of KDM4E catalysed demethylation, formaldehyde dehydrogenase (FDH) coupled assay was 20.7 µM.
